This is an account of results in patent publication US20030049258A1, “Method of increasing the contractility of a heart, a heart muscle or cells of a heart muscle” (priority 2001, published 2003).

The subject of test [1] is adult ventricular cardiomyocytes. Description: Intracellular cAMP formation in cardiomyocytes (ELISA). It counts as cell-based, rabbit. The protocol: (§1) Single calcium-tolerant ventricular myocytes were isolated from White New Zealand rabbits. Cardiomyocytes from healthy or failing rabbit hearts were isolated according to the same protocol (Laugwitz et al. (2001) Circ Res. 88, 688-95). Briefly, the hearts were perfused and digested with collagenase. The isolated cardiomyocytes were then resuspended and cultured in modified M199 on laminin-precoated dishes (5-10 μg/cm^2) at a density of 1.5×10^5 cells per cm^2 (at 5% CO2 and 37° C.). The cells were infected with adenovirus (multiplicity of infection (moi) 1 pfu/cell) 5 hours after plating. 50-60% of the infected cardiomyocytes express the transgene at this titer. Cardiomyocytes were harvested 48 hours after adenoviral infection. The cells were homogenized and cytosolic extracts were then used for western bloffing by using a polyclonal rabbit antibody raised against phosducin. Goat anti-rabbit second antibodies by Dianova, Germany, were used as second antibodies.
Intracellular cAMP formation in cardiomyocytes: The effects of nt-del-phosducin expression on G protein-mediated signalling are shown based on the measurement of cAMP accumulation in isolated cardiomyocytes after ex vivo gene transfer. Cardiomyocytes were investigated 48 hours after adenoviral infection. The cells were harvested and stimulated with increasing concentrations of isoproterenol for 20 minutes. […]
(cAMP levels reflect the balance of adenylyl cyclase and phosphodiesterase activity.)

For test [2], the system named is rabbits with heart failure. Kind of test: Pacing-induced heart failure after in vivo adenoviral gene transfer: tip catheterization and echocardiography. The arrangement: species or system New Zealand White rabbits. The text has this: Model of Heart Failure: Medtronic pacemakers were implanted into New Zealand White rabbits (weight 3.6±0.3 Kg; from Harlan, Munich, Germany). Two days afterwards, rapid pacing was initiated at 320 beats/min. Under this protocol, a tachycardia-induced heart failure (HF) develops reproducibly over one week. Pacing was then continued at 360 beats/min, which predictably led to a further deterioriation of heart failure. The average contractility in failing hearts was 2200±320 mmHg/sec (vs. 4000±390 mmHg/sec in healthy controls; p<0.05), and LVEDP increased from 3.6±0.4 mmHg to 13.5±1.2 (p<0.05).
Adenoviral Gene Transfer To Rabbit Myocardium: After the first week of rapid pacing, all rabbits received catheter-based adenoviral gene transfer (5×10^9 pfu) to the myocardium as described before (Weig et al. (2000) Circulation 101, 1578-1585). For the intervention, the rabbitswere anesthetized with fentanyl and propofol.
Myocardial Contractility Measurement by Echocardiography and Intraventricular Tip Catheterization: Left ventricular contractility was examined before the initiation of rapid pacing, before adenoviral gene transfer, and at the end of the protocol (two weeks after the start of pacing and one week after gene transfer). The rabbits were anesthetized as described before; ECG was monitored continuously.
For echocardiography, a 7.5 MHz probe was fixed on a tripod. Standard sections were recorded, which were well reproducible. For tip catheter measurements, a Millar 3F tip catheter connected to a differentiating device was placed in the left ventricle. After definition of basal contractility and left ventricular pressure, 200 μL of NaCl (0.9%) was injected as a negative control. Isoproterenol was infused at increasing doses. After a sufficient equilibration period, tip catheter measurements were carried out.
Improvement of LV dysfunction in pacing-induced heart failure after adenovirus delivery: Ad-GFP and Ad-nt-del-phosducin-GFP were directly delivered to rabbit hearts after 1 week of rapid pacing, and hemodynamic parameters were measured after another week of pacing at 360 bpm. […]

Test [3] relates to cardiomyocytes isolated from failing hearts. Description: Single cell contraction after ex vivo adenoviral gene transfer, failing cardiomyocytes. It counts as cell-based, rabbit. As for the experimental part: (§2) Recombinant (E1/E3-Deficient) flag-tagged adenovirus for nt-del-phosducin (Ad-nt-del-phosducin-GFP) was generated, expressing the transgene and green fluorescence protein (GFP) under the control of two independent CMV promoters in a bi-cistronic system (He et al. (1998) Proc Natl Acad Sci USA 95, 2509-14). As a control, Ad-GFP without further transgenes was used. Large virus stocks were prepared as described previously (Laugwitz et al. (1999) Circulation 99, 925-933). Adenoviral titers were determined using plaque titration and GFP expression titration in non E1-expressing cells.
as §1
(§3) Single cell contraction after adenovirus delivery: Contractility of infected cardiomyocytes was measured by an electro-optical monitoring system connected to online digitalized assessment of amplitude and velocity of shortening and of relaxation as described before (Laugwitz et al. (2001) Circ Res. 88, 688-95). After the contraction amplitude reached stability, increasing concentrations of isoproterenol were applied.

The test system of test [4] is Gβγ-dependent signalling pathways. Description: IP3 assay: inhibition of Gβγ-mediated effects in adenovirus-infected cardiomyocytes. Conditions: response to 1 μmol/L bradykinin or 10 μmol/l acetylcholine, 1 minute, vs Ad-GFP. Type of test: cell-based, rabbit. The protocol: For IP3 assays, adenovirus-infected cardiomyocytes were stimulated with the respective agonists for 1 minute, and the reaction was stopped by adding perchloric acid (4%) and scratching the cells off. They were centrifuged at 2000×g, and then […] of KOH (10 mol/L) was added. The solution was resuspended and centrifuged again, and the protein content of each sample was determined by the method of Bradford (1976) Anal. Biochem. 72, 248-254. The supernatant was used for an assay kit using ^3H-inositol-(1,4,5)-trisphophate and a binding protein (Amersham, cat. no. TRK 1000) to measure IP3 formation, following the manufacturer's instructions.
For IP3 assays, cardiomyocytes infected with Ad-GFP or Ad-nt-del-phosducin-GFP (Example 1) were stimulated with 1 μmol/L bradykinin or 10 μmol/l acetyl choline, for 1 minute. In addition, basal levels were determined in the absence of agonists. Then the reaction was stopped by adding perchloric acid (4%) and scratching the cells off. They were centrifuged at 2000×g, and then 10 μl of KOH (10 mol/L) was added. The solution was resuspended and centrifuged again, and the protein content of each sample was determined by the method of Bradford^22. The supernatant was used for an assay kit using ^3H-inositol-(1,4,5)-trisphophate and a binding protein (Amersham, cat. no. TRK 1000) to measure IP3 formation, following the manufacturer's instructions. […]

The subject of test [5] is cardiomyocytes isolated from healthy hearts. Description: Single cell contraction after ex vivo adenoviral gene transfer, healthy cardiomyocytes. It counts as cell-based, rabbit. As for the experimental part:
as §2, §1, §3

Test [6] has as its system transgenic heart failure model (β1-TG4). Description: Transgenic mouse overexpressing full-length phosducin cross-bred with heart failure model (histology). As to conditions: heart-failing mice vs heart-failing mice cross-bred with overexpressing mice. It counts as in vivo. As for the experimental part: FIG. 8 Histological alterations in transgenic mouse hearts. Hematoxylin/eosin-stained 5 μm sections of paraffin-embedded left ventricular myocardium from healthy wild-type mice and from a transgenic heart failure model (,β-TG4”, see Engelhardt et al. (1999) Proc. Natl. Acad. Sci. USA 96, 7059-64). […] The sequence of full-length phosducin was cloned into a plasmid as described by Engelhardt et al. (1999) Proc. Natl. Acad. Sci. USA 96, 7059-64. The purified linear DNA (1 μg/μl) was injected into fertilized oocytes from superovulated FVB/N mice according to standard procedures. The injected oocytes were transferred to the oviducts of pseudopregnant CD-1 mice. All mice were kept in a specific pathogen-free facility. Generation and investigation of these mice was approved by the responsible government authorities. The F0 generation was screened for integration of the transgene by PCR using specific primers. The transgenic mouse was tested with regard to the effect of overexpression of wild type full-length phosducin on the development of heart failure in a murine disease model.

A further test has as its system adenylyl cyclase. Conditions: compared to controls in different cell types and tissues (Bauer et al. 1992; Schulz et al. 1996); cited from earlier work.

With `CC(C)NCC(O)c1ccc(O)c(O)c1` (stereo not drawn) [isoproterenol, reference compound], the “intracellular cAMP content” value in test [1] (isoproterenol stimulation, all groups, FIG. 3) was “increased”.

B1: nt-del-phosducin: N-terminal truncated human phosducin variant of SEQ ID No: 2 (52 N-terminal amino acids deleted), expressed from adenovirus Ad-nt-del-phosducin-GFP (protein, listed as Homo sapiens)
chain: MSSPQSRDDKDSKERFSRKMSVQEYELIHKDKEDENCLRKYRRQCMQDMHQKLSFGPRYGFVYELESGEQFLETIEKEQKITTIVVHIYEDGIKGCDALNSSLICLAAEYPMVKFCKIKASNTGAGDRFSSDVLPTLLVYKGGELLSNFISVTEQLAEEFFTGDVESFLNEYGLLPEKEMHVLEQSNMEEDME
modifications: GFP expressed via adenovirus
As to B1, the “LV fractional shortening (FS) by serial echocardiography” value in test [2] (change during the second week of rapid pacing (before gene transfer vs end of experiment)) is “did not change”. Besides, the “first derivative of LV pressure (dp/dt max)” value in test [2] (one week after gene transfer, in response to isoproterenol, vs Ad-GFP-infected control group) was “significantly higher”. In test [2] (one week after gene transfer, vs Ad-GFP-infected control group), the “increase in systolic LV pressure in response to isoproterenol” value is on record as “significantly higher”. The “maximal contraction amplitude in response to isoproterenol” value in test [3] (failing cardiomyocytes, FIG. 5B) is “enhanced”. Also, the “shift of isoproterenol concentration-response curve” value in test [3] (failing cells) and in test [5] (normal cells) was “significantly shifted to the left” in each case. Moreover, the “Emax of fractional shortening in response to isoproterenol” value in test [3] (failing cells, infected ex vivo, Hill equation fit) was 7.8±0.1; in test [5] (healthy cells, infected ex vivo, Hill equation fit) it was 11.2±0.2. In test [4], the “intracellular IP3 formation” value is “reduced”. The “cAMP formation in response to isoproterenol” value in test [1] (48 hours after infection, isoproterenol 20 minutes, vs GFP, did not reach statistical significance) was “trend towards decreased cAMP formation”. In test [5] (compared to Ad-GFP-infected control cells, FIG. 5A), the “basal and maximal contractility in response to isoproterenol” value was “markedly increased”. Also, in test [5] (compared with contraction amplitude results, normal and failing cardiomyocytes), the shortening velocity result was “Very similar results”.

B2: full-length phosducin: Wild type full-length phosducin, Gβγ binding protein; overexpressed in transgenic mouse hearts (protein)
chain: MEEAKSQSLEEDFEGQATHTGPKGVINDWRKFKLESQDSDSIPPSKKEILRQMSSPQSRNGKDSKERVSRKMSIQEYELIHKEKEDENCLRKYRRQCMQDMHQKLSFGPRYGFVYELETGKQFLETIEKELKITTIVVHIYEDGIKGCDALNSSLTCLAAEYPIVKFCKIKASNTGAGDRFSLDVLPTLLIYKGGELISNFISVAEQFAEEFFAGDVESFLNEYGLLPEREVHVLEHTKIEEEDVE
Regarding B2, the “degree of heart failure (histologically: myocyte hypertrophy and fibrosis of heart sections)” value in test [6] is reported as “no observable differences”. The “maximal βAR-dependent adenylyl cyclase stimulability” value in the test with adenylyl cyclase is listed as “significantly decrease”.
